From patent US20210187118A1 (Daiichi Sankyo, published 2021)

Target: TA-MUC1 (tumor-associated MUC1) on human tumor cells (human, UniProt P15941 24-1255, aberrant tumor-associated O-glycosylation)
Assay: cell-based or functional assay

Chain of TA-MUC1 (tumor-associated MUC1) on human tumor cells (P15941 24-1255): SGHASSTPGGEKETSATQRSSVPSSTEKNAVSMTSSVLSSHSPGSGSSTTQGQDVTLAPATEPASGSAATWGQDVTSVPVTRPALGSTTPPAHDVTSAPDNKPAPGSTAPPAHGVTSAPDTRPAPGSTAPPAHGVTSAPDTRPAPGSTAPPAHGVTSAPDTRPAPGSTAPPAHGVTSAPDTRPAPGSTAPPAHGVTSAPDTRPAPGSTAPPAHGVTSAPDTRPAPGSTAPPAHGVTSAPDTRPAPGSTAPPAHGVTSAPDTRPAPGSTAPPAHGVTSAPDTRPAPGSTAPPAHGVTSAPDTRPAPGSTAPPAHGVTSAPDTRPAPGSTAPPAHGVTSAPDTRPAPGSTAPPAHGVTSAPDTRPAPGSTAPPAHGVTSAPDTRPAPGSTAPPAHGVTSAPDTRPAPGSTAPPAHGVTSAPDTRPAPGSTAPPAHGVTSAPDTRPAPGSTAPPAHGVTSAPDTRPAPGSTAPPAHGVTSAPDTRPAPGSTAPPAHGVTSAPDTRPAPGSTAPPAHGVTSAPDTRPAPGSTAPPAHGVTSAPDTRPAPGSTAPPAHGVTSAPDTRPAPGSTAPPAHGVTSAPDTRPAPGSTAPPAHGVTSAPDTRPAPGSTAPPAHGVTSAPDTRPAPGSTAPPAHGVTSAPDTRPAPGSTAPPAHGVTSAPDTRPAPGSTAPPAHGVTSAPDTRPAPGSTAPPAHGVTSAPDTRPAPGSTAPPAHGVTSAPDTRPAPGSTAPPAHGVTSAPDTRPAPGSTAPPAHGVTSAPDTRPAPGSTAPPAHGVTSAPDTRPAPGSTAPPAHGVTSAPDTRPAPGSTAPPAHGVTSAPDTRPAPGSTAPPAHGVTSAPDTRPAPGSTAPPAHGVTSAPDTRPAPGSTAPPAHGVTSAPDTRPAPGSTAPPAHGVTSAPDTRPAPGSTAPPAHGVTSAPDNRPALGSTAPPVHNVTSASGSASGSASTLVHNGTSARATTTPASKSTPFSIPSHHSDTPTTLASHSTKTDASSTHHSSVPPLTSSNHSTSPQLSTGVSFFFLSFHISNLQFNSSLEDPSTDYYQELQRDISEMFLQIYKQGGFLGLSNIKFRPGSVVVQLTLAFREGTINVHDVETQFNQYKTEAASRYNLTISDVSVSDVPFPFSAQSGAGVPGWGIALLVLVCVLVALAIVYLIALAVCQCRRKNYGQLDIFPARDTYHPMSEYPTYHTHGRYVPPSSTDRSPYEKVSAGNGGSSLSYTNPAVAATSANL

Binder	IC50 of cytotoxic activity (cell viability, ATP assay, 6 days) on TA-MUC1 positive MDA-MB-468 cells [nM]	cytotoxic activity on HPAC and NCI-H441 cells, fold against PankoMab-ADC [fold]	potency ratio of PM-N54Q-ADC to PankoMab-ADC, cytotoxic activity on HPAC cells [ratio]	potency ratio of PM-N54Q-ADC to PankoMab-ADC, cytotoxic activity on NCI-H441 cells [ratio]
PankoMab-ADC (antibody, human IgG1, kappa, V domains shown, drug-linker of Formula 2 bound by thioether bonds; drug-linker of Formula 2 (maleimide-GGFG linker with DXd/exatecan derivative) bound by thioether bonds; average approximately 8 drug molecules per antibody; Fab N-glycan on Asn54 (position 57)) VH: EVQLVESGGGLVQPGGSMRLSCVASGFPFSNYWMNWVRQAPGKGLEWVGEIRLKSNNYTTHYAESVKGRFTISRDDSKNSLYLQMNSLKTEDTAVYYCTRHYYFDYWGQGTLVTVSS VL: DIVMTQSPLSNPVTPGEPASISCRSSKSLLHSNGITYFFWYLQKPGQSPQLLIYQMSNLASGVPDRFSGSGSGTDFTLRISRVEAEDVGVYYCAQNLELPPTFGQGTKVEIKR	< 10	–	–	–
PM-N54Q-ADC (antibody, human IgG1, kappa, V domains shown, drug-linker of Formula 2 bound by thioether bonds; drug-linker of Formula 2 (maleimide-GGFG linker with DXd/exatecan derivative) bound by thioether bonds; average approximately 8 drug molecules per antibody) VH: EVQLVESGGGLVQPGGSMRLSCVASGFPFSNYWMNWVRQAPGKGLEWVGEIRLKSNQYTTHYAESVKGRFTISRDDSKNSLYLQMNSLKTEDTAVYYCTRHYYFDYWGQGTLVTVSS VL: DIVMTQSPLSNPVTPGEPASISCRSSKSLLHSNGITYFFWYLQKPGQSPQLLIYQMSNLASGVPDRFSGSGSGTDFTLRISRVEAEDVGVYYCAQNLELPPTFGQGTKVEIKR	–	> 1.5	1.92	1.66
